{"source": "patent US20170137467A1", "about": "(CHROMOTEK, published 2017)", "key": {"[1]": {"target": "T1, BC2T W10A peptide (BC2TW10X library) (human)", "T1 construct": "also called W10 permutant A", "T1 peptide": "Ac-PDRKAAVSHAQQ-NH2", "assay": "BC2TW10X library pulldown with immobilized Nb, LC-MS of the supernatant", "protocol": "(§1) To investigate the binding specificity of the BC2T and derived mutants peptide libraries for each amino acid position of the sequence […] (SEQ ID NO:4) were synthesized with acetyl and amide groups located at the N-termini or C-termini respectively (Intavis). […] Incubations were performed in 300 μl PBS/0.01% CHAPS for 1 h on a HulaMixer (Life Technologies). Subsequent to a centrifugation step 10 μl supernatant were analyzed in a LC-MS procedure. Peptides were separated using an UltiMate3000 RSLCnano System (Thermo Scientific), composed of a C18 PepMap100μ-Precolumn (300 μm×5 mm; particle size: 5 μm; pore size: 100 Å—Thermo Scientific) and a C18 analytical column (Acclaim Rapid Separation LC (RSLC) Column: 150 mm×5 mm; particle size: 2.2 μm; pore size: 100 Å—Thermo Scientific). A step gradient was applied starting at 8% and ending after 20 min at 30% eluent B (80% acetonitrile, 20% H₂O, 0.1% formic acid). Peptides were analyzed using a FULL-MS-strategy detected by a Q Exactive Plus mass spectrometer (Thermo Scientific). As maximal injection time 100 ms was chosen while setting the AGC target to 3E6. The resolution was set to 70.000. Half-maximal signal areas were referenced to control precipitation approaches using a GFP-specific nanobody immobilized on agarose beads. All experiments were done in triplicates."}, "[2]": {"target": "T2, BC2T W10G peptide (BC2TW10X library) (human)", "T2 construct": "also called W10 permutant G", "T2 peptide": "Ac-PDRKAAVSHGQQ-NH2", "assay": "BC2TW10X library pulldown with immobilized Nb, LC-MS of the supernatant", "protocol": "as §1"}, "[3]": {"target": "T3, BC2T W10S peptide (BC2TW10X library) (human)", "T3 construct": "also called W10 permutant S", "T3 peptide": "Ac-PDRKAAVSHSQQ-NH2", "assay": "BC2TW10X library pulldown with immobilized Nb, LC-MS of the supernatant", "protocol": "as §1"}, "[4]": {"target": "T4, BC2T W10I peptide (BC2TW10X library) (human)", "T4 construct": "Isobaric with the leucine peptide; also called W10 permutant I", "T4 peptide": "Ac-PDRKAAVSHIQQ-NH2", "assay": "BC2TW10X library pulldown with immobilized Nb, LC-MS of the supernatant", "protocol": "as §1"}, "[5]": {"target": "T5, mCherry-Vimentin (untagged) (UniProt P08670 1-466)", "T5 construct": "Control without the BC2 tag; not shown: mCherry fluorescent protein", "assay": "immunoprecipitation from HEK293T lysate with the BC2 nanotrap, immunoblot with anti-vimentin", "protocol": "(§2) HEK293T cells transiently expressing eGFP, eGFPBC2T or BC2TeGFP, eGFP-PCNA, eGFP-PCNABC2T, mCherry-Vimentin, mCherry-VimentinBC2T were washed and harvested in phosphate buffered saline (PBS), snap-frozen in liquid nitrogen and stored at −20° C. Cell pellets were homogenized in 200 μl lysis buffer (10 mM Tris/Cl pH 7.5, 150 mM NaCl, 0.5% NP40, 1 μg DNaseI, 2 mM MgCl₂, 2 mM PMSF, 1× protease inhibitor mix M (Serva) by repeated pipetting for 40 min on ice. After a centrifugation step (10 min at 18.000×g) the protein concentration of each lysate was determined using a Pierce BCA Protein Assay Kit (Thermo Fisher Scientific) according to manufacturer's protocol and the protein solutions were adjusted with dilution buffer (10 mM Tris/Cl pH 7.5, 150 mM NaCl, 2 mM PMSF) to a concentration of 1 mg/ml. 2% of the supernatant were added to SDS-containing sample buffer (referred to as input). […] After a centrifugation step (2 min, 2500×g) the precleared supernatant was transferred to a new cup. 2% were added to SDS-containing sample buffer (referred to as non-bound). […] Samples were analyzed by SDS-PAGE followed by immunoblotting. Immunoblots were probed with indicated antibodies."}, "[6]": {"target": "T6, BC2T A6K peptide (BC2TA6X library) (human)", "T6 construct": "also called lysine at position 6", "T6 peptide": "Ac-PDRKAKVSHWQQ-NH2", "assay": "BC2TA6X library pulldown with immobilized Nb, LC-MS of the supernatant", "protocol": "as §1"}, "[7]": {"target": "T7, BC2T A6R peptide (BC2TA6X library) (human)", "T7 construct": "also called arginine at position 6", "T7 peptide": "Ac-PDRKARVSHWQQ-NH2", "assay": "BC2TA6X library pulldown with immobilized Nb, LC-MS of the supernatant", "protocol": "as §1"}, "[8]": {"target": "T8, mCherry-Vimentin with C-terminal BC2 tag (mCherry-VIMBC2T) (human, UniProt P08670 1-466)", "T8 construct": "Expressed in HEK293T or HeLa cells; also called mCherry-VimentinBC2T; not shown: mCherry fluorescent protein", "T8 sequence (P08670 other isoform, or with tags, fused parts or gaps)": "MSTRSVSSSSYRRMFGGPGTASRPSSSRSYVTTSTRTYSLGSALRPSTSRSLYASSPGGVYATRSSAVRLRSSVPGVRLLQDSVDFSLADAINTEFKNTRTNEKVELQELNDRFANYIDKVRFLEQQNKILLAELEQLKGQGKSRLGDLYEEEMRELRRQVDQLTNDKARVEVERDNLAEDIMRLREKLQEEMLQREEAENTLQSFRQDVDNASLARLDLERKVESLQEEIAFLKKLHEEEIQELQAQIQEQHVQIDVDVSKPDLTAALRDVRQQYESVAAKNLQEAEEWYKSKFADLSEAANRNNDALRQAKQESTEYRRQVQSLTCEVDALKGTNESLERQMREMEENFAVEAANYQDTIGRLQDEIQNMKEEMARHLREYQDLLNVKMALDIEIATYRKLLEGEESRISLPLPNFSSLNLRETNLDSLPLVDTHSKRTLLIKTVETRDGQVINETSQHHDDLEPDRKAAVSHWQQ", "assay": "immunoprecipitation from HEK293T lysate, immunoblot with anti-vimentin", "protocol": "as §2"}, "[9]": {"target": "T9, BC2T W10(I/L) library peptide, version 1 (N-terminal acetyl, C-terminal amide)", "T9 construct": "Ile and Leu versions are isobaric; two versions resolved but not assigned; also called BC2TW10X: I/L1", "assay": "peptide library pulldown on immobilized Nb, LC-MS of supernatant; ratio vs GFP-Nb control (1 = not captured, 0 = captured)", "description": "(§3) In total, 12 different BC2T libraries displaying all 20 proteinogenic amino acids in one single position of the peptide were used in immunoprecipitation experiments. […] The direct comparison with the GFP-Nb made it possible to determine the quantitative degree of peptide capture without the need of labeled standards. […] The more peptide was captured the more the value approximates 0. It was not possible to discriminate between isoleucine (I) and leucine (L) peptide versions since these peptides are isobaric.\nas §1, with “acid).” for “acid). Peptides were analyzed using a FULL-MS-strategy detected by a Q Exactive Plus mass spectrometer (Thermo Scientific). As maximal injection time 100 ms was chosen while setting the AGC target to 3E6. The resolution was set to 70.000. Half-maximal signal areas were referenced to control precipitation approaches using a GFP-specific nanobody immobilized on agarose beads. All experiments were done in triplicates.”"}, "BC2T S8K library peptide": {"target": "T10, BC2T S8K library peptide (human)", "T10 construct": "also called BC2TS8X: K", "T10 peptide": "Ac-PDRKAAVKHWQQ-NH2", "assay": "peptide library pulldown on immobilized Nb, LC-MS of supernatant; ratio vs GFP-Nb control (1 = not captured, 0 = captured)", "description": "as §3\nas §1, with “acid).” for “acid). Peptides were analyzed using a FULL-MS-strategy detected by a Q Exactive Plus mass spectrometer (Thermo Scientific). As maximal injection time 100 ms was chosen while setting the AGC target to 3E6. The resolution was set to 70.000. Half-maximal signal areas were referenced to control precipitation approaches using a GFP-specific nanobody immobilized on agarose beads. All experiments were done in triplicates.”"}, "[10]": {"target": "T11, BC2T Q12W library peptide (human)", "T11 peptide": "Ac-PDRKAAVSHWQW-NH2", "assay": "peptide library pulldown on immobilized Nb, LC-MS of supernatant; ratio vs GFP-Nb control (1 = not captured, 0 = captured)", "description": "as §3\nas §1, with “acid).” for “acid). Peptides were analyzed using a FULL-MS-strategy detected by a Q Exactive Plus mass spectrometer (Thermo Scientific). As maximal injection time 100 ms was chosen while setting the AGC target to 3E6. The resolution was set to 70.000. Half-maximal signal areas were referenced to control precipitation approaches using a GFP-specific nanobody immobilized on agarose beads. All experiments were done in triplicates.”"}}, "data": [{"binder": "BC2 nanobody (VHH, Alpaca VHH, 122 aa; also called BC2-Nb; BC2 nanotrap (BC2-Nb immobilized on agarose/Sepharose beads); not shown: C-terminal 6xHis-tag added by the pHEN6 vector) VHH: QVQLVESGGGLVQPGGSLTLSCTASGFTLDHYDIGWFRQAPGKEREGVSCINNSDDDTYYADSVKGRFTIFMDNAKDTVYLQMNSLKPEDTAIYYCAEARGCKRGRYEYDFWGQGTQVTVSS", "values": [{"measurement": "binding result", "setting": "[1]", "result": "no binding"}, {"measurement": "binding result", "setting": "[2]", "result": "no binding"}, {"measurement": "binding result", "setting": "[3]", "result": "no binding"}, {"measurement": "binding result", "setting": "[4]", "result": "no binding"}, {"measurement": "binding result", "setting": "[5]", "result": "no binding"}, {"measurement": "binding result", "setting": "[6]", "result": "no binding"}, {"measurement": "binding result", "setting": "[7]", "result": "no binding"}, {"measurement": "binding result", "setting": "[8]", "result": "binds"}]}, {"binder": "BC2-Nb(R106E) (VHH, Headlock mutant; immobilized on beads in the library pulldown) VHH: QVQLVESGGGLVQPGGSLTLSCTASGFTLDHYDIGWFRQAPGKEREGVSCINNSDDDTYYADSVKGRFTIFMDNAKDTVYLQMNSLKPEDTAIYYCAEARGCKRGEYEYDFWGQGTQVTVSS", "values": [{"measurement": "ratio", "setting": "[9]", "result": 1}, {"measurement": "ratio", "setting": "BC2T S8K library peptide", "result": 0.9}, {"measurement": "ratio", "setting": "[10]", "result": 0.2}]}]}
